Laboratory results published in patent US20250276077A1, “EPHA2 ANTIBODIES” (Immunome, Inc., priority 2022, published 2025).
Entries after “also recorded” stand apart in the source; their conditions may differ. Each block holds one molecule with its values, some of them ahead of it.

Assays:
A549 cells [1] = assay: ADCP with RAW264.7 mouse macrophage effector cells; type: cell-based, human
Method: For antibody-dependent cellular phagocytosis (ADCP), the cell membranes of target cells were labeled with green fluorescent membrane dye preceding opsonization with different concentrations of antibody at room temperature for 30 minutes. RAW264.7 mouse macrophage (effector) cells were then added at a 1:1 ratio with the target cells and co-cultured at 37° C. and 5% CO2 for 2 hours. After incubation, the cell mixture was dissociated with 2 mM ethylenediaminetetraacetic acid (EDTA, pH 7.4). The cell suspension was then washed several times in an isotonic salt solution and probed with a commercially available anti-CD11b antibody, conjugated with Allophycocyanin (APC). After a 30-minute incubation at 4° C. with this antibody, the cell suspension was washed again before being analyzed by flow cytometry.

A549 cells [2] = assay: Flow screen (in vitro) surface binding; set-up: species or system human; details: flow cytometry; comparisons are to AB-008873
Method: Surface binding of the antibodies to in vitro grown cell lines was assessed by flow cytometry. Tumor cells were detached from their culture plate using Versene and counted. Cells were staining in BSA-containing buffer with primary antibody for 30 minutes at 4° C. with shaking. Following, cells were washed and stained with secondary PE-labeled antibody for 30 minutes at 4° C. with shaking. Before analysis on an Intellicyt iQue3 scanner, cells were counterstained with DAPI. MedFI values from live, single cells was expressed as fold over isotype control.

A549 cells [3] = assay: ADCC (KILR target cells, NK92 CD16 chimera effector cells); type: cell-based, human; details: for ADCC activity on A549 cells (in words): comparisons are to AB-008873 or parent
Method: (§1) To detect Antibody-dependent cellular cytotoxicity (ADCC), KILR™-transfected target cells were opsonized with different concentrations of the antibody at room temperature for 20 minutes. Following, NK92 cells carrying a mouse extracellular-human intracellular CD16 chimera were added at a 5:1 ratio of effector to target cells. After a 4 h co-culture at 37° C. and 5% CO2, pre-mixed KILR™ detection reagent was added to each well at equal volume and allowed to incubate for 30 min at room temperature in the dark before reading luminescence on a pate reader. Cytotoxicity was calculated after background (spontaneous release) subtraction and expressed as percent of a maximum lysis control.

PC3-KILR cells = assay: as above; type: cell-based, human
Method: as §1

[4] = biological target: T1, extracellular domain of human EphA2 (25-534) (Homo sapiens, UniProt P29317); assay: Epitope binning by bio-layer interferometry (Octet, in-tandem); type: binding
T1 construct: extracellular domain of human EphA2 (25-534) with a C-terminal HIS tag; purchased R&D Systems 3035-A2
Method: Epitope binning was performed using an Octet Red 96E instrument (Sartorius) using the in-tandem format. In this format, antigen is captured on a biosensor tip, a first antibody (or other binding partner) is bound to saturation, and subsequently the ability of a second antibody (or binding partner) known to recognize the antigen is assessed. If substantial binding by the second species is no longer observed, it is supportive that simultaneous binding is sterically hindered (i.e., the second species is “blocked” by pre-saturation of the 1st) and that the two may bind overlapping epitopes. If, however, substantial binding of the second species is observed, despite saturation of the first, it is supportive that the two bind non-overlapping epitopes. Groups of antibodies that block one another can be considered to populate the same epitope bin.
The fourth antibody Fv region (AB-008873) was discovered via Atreca's Immune Repertoire Capture (IRC™). Antibodies were produced with mouse IgG2a constant regions. The natural ligand tested was EphrinA1 fused to Fc (Acro, EF1-H5251). Antigen immobilized on the biosensor was the extracellular domain of human EphA2 (25-534) with a C-terminal HIS tag (R&D Systems, 3035-A2) and captured using Ni-NTA tips (Sartorius, 18-5102). Protein solutions were made in 1× Kinetics buffer (Satorius, 18-1092) supplemented with 2.5 mM Imidazole to reduce non-specific binding. Each pairwise interaction was assessed in both orders of addition, and controls for binding in the absence of antigen or with antigen but without a first binding species included. Binning indicated the five molecules populated only two Bins. The first bin contains molecules AB-008873 and AB-010018 and was interpreted to represent epitopes on the membrane proximal fibronectin domain of EphA2 based on the reported epitope location of DS-8895a (Hasegawa, J. et al., Novel anti-EPHA2 antibody, DS-8895a for cancer treatment. Cancer Biology and Therapy, 17(11), 1158-1167 (2016)). The second bin contains molecules AB-010017. AB-010016, and EphrinA1-Fc and was interpreted to represent epitopes on the ligand binding domain (Peng, L. et al., Structural and functional characterization of an agonistic anti-human EphA2 monoclonal antibody. Journal of Molecular Biology, 413(2), 390-405 (2011); Geddie, M. L. et al., Improving the developability of an anti-EphA2 single-chain variable fragment for nanoparticle targeting. MAbs, 9(1), 58-67 (2017)). FIG. 5, Tables 41-42. Referring to FIG. 5, the FN2 location in the first bin is inferred from domain deletion data reported in Hasegawa et al., 2016, FIG. 1, noting that the reported MMP cleavage sites are (385/395/432/435).

T1 sequence (P29317 25-534): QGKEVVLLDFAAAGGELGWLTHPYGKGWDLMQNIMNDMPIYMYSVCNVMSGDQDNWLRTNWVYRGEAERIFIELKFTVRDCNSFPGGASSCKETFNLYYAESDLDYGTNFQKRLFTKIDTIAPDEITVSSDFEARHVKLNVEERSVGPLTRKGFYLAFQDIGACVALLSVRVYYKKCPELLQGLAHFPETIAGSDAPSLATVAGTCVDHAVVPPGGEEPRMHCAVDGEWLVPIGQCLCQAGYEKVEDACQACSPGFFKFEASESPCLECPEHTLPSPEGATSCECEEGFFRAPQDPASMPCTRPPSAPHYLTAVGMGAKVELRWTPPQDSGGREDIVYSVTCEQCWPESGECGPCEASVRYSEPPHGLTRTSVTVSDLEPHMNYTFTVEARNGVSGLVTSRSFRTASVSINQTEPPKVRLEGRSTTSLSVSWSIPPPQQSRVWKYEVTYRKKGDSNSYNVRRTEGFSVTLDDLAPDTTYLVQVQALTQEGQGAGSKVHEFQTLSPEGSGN

B1: AB-009807: sibling of AB-008873; VH SEQ ID NO: 70, VL SEQ ID NO: 81 (antibody, V domains shown)
VH: QVQLQQWGAGLLKPSETLSLTCAVYGGSFNDYYWSWIRQPPGKGLEWIGEVNHSGSTSYNPSLKSRVTISVDTSKNQFSLKLSSVTAADTAVYYCAKPFRPHCTNGVCYSGDAFDIWGQGTMVTVSS
VL: SYVLTQPPSVSVAPGQTARITCGGNNIGSKNVHWYQQKPGQAPALVVYDDSDRPSGIPEQFSGSNSGNTATLTISRVEAGDEADYYCQVWDSSSDHLVFGGGTKLTVL
ADCP activity on A549 cells (in words) (A549 cells [1]): less than that of AB-008873; also recorded: some ADCP activity
binding to A549 cells (in words) (A549 cells [2]): less than that of AB-008873; also recorded: little binding and ADCC activity
ADCC activity on A549 cells (in words) (A549 cells [3]): less than that of AB-008873; also recorded: little binding and ADCC activity

EC50 (A549 cells [3]; A549 tumor cells): ~6 pM
B2: AB-010685: VH SEQ ID NO: 638, VL SEQ ID NO: 703; H107TI; L29SY; L92SH relative to AB-010361 (antibody, V domains shown)
VH: QVQLQQWGAGLLKPSETLSLTCAVYGGSFSGYYWSWIRQPPGKGLEWIGEINHRGSINYNNYNPSLKSRVTISVDTSKNQFSLKLSSVTAADTAVYYCAKPLRPHCINGVCYSGDAFDIWGQGTMVTVAS
VL: SYVLTQPPSVSVAPGQTARITCGGNNIGYKNVHWYQQKPGQAPVLVVYDDSDRPSGIPEQFSGSNSGNTATLTISRVEAGDEADYYCQVWDHSSDHVVFGGGTKLTVL
ADCC - dAct rel. parent, Trial 1 (A549 cells [3]; A549 tumor cells, Trial 1, relative to parent antibody): 161.1%
ADCC - dAct rel. parent, Trial 2 (A549 cells [3]; A549 tumor cells, Trial 2, relative to parent antibody): 106.4%
ADCC activity on A549 cells (in words) (A549 cells [3]): improved ADCC activity
ADCC potency on PC3-KILR cells (in words) (PC3-KILR cells): highly potent
fold improvement in ADCC as compared to AB-010018 (PC3-KILR cells; PC3-KILR cells): 10 fold

epitope bin ([4]; first bin: membrane proximal fibronectin domain, second bin: ligand binding domain): second bin
B3: EphrinA1-Fc: natural ligand EphrinA1 fused to Fc (Acro, EF1-H5251) (protein)
chain: DRHTVFWNSSNPKFRNEDYTIHVQLNDYVDIICPHYEDHSVADAAMEQYILYLVEHEEYQLCQPQSKDQVRWQCNRPSAKHGPEKLSEKFQRFTPFTLGKEFKEGHSYYYISKPIHQHEDRCLRLKVTVSGKITHSPQAHDNPQEKRLAADDPEVRVLHSIGHS
modifications: left off: a dimerising Fc or GST

Octet in tandem binning, Notes/Scoring ([4]; label = Analyte 1, Analyte 2 8873-02, NiNTA tip, Ligand R&D ECD-06): Binding observed
Octet in tandem binning (blocked / binds) ([4]; paired with 8873-2 (column; Bin #1 - FN2)): binds
Octet in tandem binning (blocked / binds) ([4]; paired with 10016-01 (Bin #2 - LBD)): blocked
Octet in tandem binning (blocked / binds) ([4]; paired with 10017-01 (Bin #2 - LBD)): blocked
Octet in tandem binning (blocked / binds) ([4]; paired with 10018-01 (column; Bin #1 - FN2)): binds
Octet in tandem binning (blocked / binds) ([4]; paired with Ephrin-A1 (Bin #2 - LBD)): blocked
B4: Ephrin-A1 (protein)
chain: DRHTVFWNSSNPKFRNEDYTIHVQLNDYVDIICPHYEDHSVADAAMEQYILYLVEHEEYQLCQPQSKDQVRWQCNRPSAKHGPEKLSEKFQRFTPFTLGKEFKEGHSYYYISKPIHQHEDRCLRLKVTVSGKITHSPQAHDNPQEKRLAADDPEVRVLHSIGHS
modifications: left off: a dimerising Fc or GST
